Results from article PMC7921949.

Biological target: PD-L1 on CT26 murine colon cancer cells (mouse (CT26)) (UniProt Q9EP73)
Experiment: flow cytometry on CT26 cells
Conditions: apparent Kd on whole cells, PBS, room temperature, 30 min, 2x10^5 CT26 cells in 250 uL, three PBS washes, Y = Bmax X/(Kd + X), n = 2

Chain of PD-L1 on CT26 murine colon cancer cells (mouse (CT26)) (Q9EP73 19-290): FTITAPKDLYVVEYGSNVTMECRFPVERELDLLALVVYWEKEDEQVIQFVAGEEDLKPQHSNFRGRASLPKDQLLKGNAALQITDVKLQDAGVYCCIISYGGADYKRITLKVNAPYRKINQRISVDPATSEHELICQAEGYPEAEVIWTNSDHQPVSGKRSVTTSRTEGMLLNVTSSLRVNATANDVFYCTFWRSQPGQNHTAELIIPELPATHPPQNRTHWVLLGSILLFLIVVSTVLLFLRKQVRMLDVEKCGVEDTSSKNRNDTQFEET

Sequence	Kd	Kd (tetravalent, first nt at 5' end of each strand phosphorothioate in some Apt-HJ, unclear for binding assay)
ACGGGCCACATCAACTCATTGATAGACAATGCGTCCACTGCCCGT [free PD-L1 aptamer (Apt)]	283 nM	–
CGGCGATCCGGCCATAGTGGATTGCGGGCCAGTGAAAAAAACGGGCCACATCAACTCATTGATAGACAATGCGTCCACTGCCCGT / CTCACTGGCCCGCAATCCTGAGCACGTGGCTGACGAAAAAACGGGCCACATCAACTCATTGATAGACAATGCGTCCACTGCCCGT / CCGTCAGCCACGTGCTCACCGAATGCTGCGCAACCAAAAAACGGGCCACATCAACTCATTGATAGACAATGCGTCCACTGCCCGT / CGGTTGCGCAGCATTCGGACTATGGCCGGATCGCCAAAAAACGGGCCACATCAACTCATTGATAGACAATGCGTCCACTGCCCGT [Apt-HJ (tetravalent aptamer Holliday junction)]	–	145 nM
